T1: human TIGIT protein (human, UniProt Q495A1 22-141, limits assumed)
T1 construct: Recombinant protein (Genentech) used in ELISA screening and as SPR analyte; also called TIGIT antigen
T1 sequence: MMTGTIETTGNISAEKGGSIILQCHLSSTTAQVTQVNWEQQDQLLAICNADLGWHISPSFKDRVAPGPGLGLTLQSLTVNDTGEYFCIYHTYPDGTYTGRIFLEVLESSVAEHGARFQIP

T2: hTIGIT mutant H76A (human, UniProt Q495A1)
T2 sequence (TIGIT, looked up): T1 sequence with H55A

B1: 7.4A3.C96Y.Q1E (antibody, V domains shown)
VH: EVQLVQSGSDLKKPGASVRVSCKASGYTFTSYPMNWVRQAPGHGLEWMGWINTNTGNPTYVQGFTGRFVFSLDTSVNTAYLQISSLKAEDTAVYFCARTGGHTYDSYAFDVWGQGTMVTVSS
VL: DIQLTQSPTFLSASVGDRVTITCRASQVISSSLAWYQQNPGKAPKLLIYAASTLQSGVPSRFSGSGSGTEFTLTISSLQPEDFVTYYCQHLHGYPYNFGQGTKVEIK
notes: No entry is tied to this variant by name; built from 7.4A3 with the two named changes (Q1E in the heavy chain, C96Y in HVR-L3); also called 7.4A3.Q1E.C96Y
B2: h6B2.L1H1 (antibody, V domains shown)
VH: EVTLKESGPALVKPTQTLTLTCTFSGFSLSTYGMGVSWIRQPPGKALEWLASIWWNGNTYYNPSLKSRLTVTKDASKNQAVLTMTNMDPVDTATYYCAHTGGAVITWFAYWGQGTLVTVSS
VL: DIQMTQSPSSLSASVGDRVTITCKASQSVGKNIAWYQQKPGKSPKLLIYYASNRYTGVPSRFSGSGSGTDFTFTISSLQPEDIATYYCQHIYNSPYPFGQGTKVEIK
notes: Humanized; FR/HVR pieces in order; also called h1.6B2.L1H1
B3: h10A5.L4H4 (antibody, V domains shown)
VH: B2 VH with S30T, K66R, V71I, A75T, A80V
VL: EIVMTQSPATLSVSPGERATLSCKASQSVGKNIAWYQQKPGQAPRLLIYYASNRYTGIPARFSGSGSGTEFTLTISSLQSEDFAVYYCQHIYNSPYPFGQGTKVEIK
notes: Fully humanized version; FR/HVR pieces in order
B4: h10A5.L1H1 (antibody, V domains shown)
VH: B2 VH with S30T, K66R, A75T
VL: B3 VL with A43S, I58V
notes: Humanized; FR/HVR pieces in order; also called h1.10A5.L1H1
B5: h15C8.L1H1 (antibody, V domains shown)
VH: EVQLVQSGAEVKKPGASVKVSCKASGYTFTEHSIYWLRQAPGQRLEIIGRIDPKNGRTYFVDKFKNRATLTTDTSASTAYMELSSLRSEDTAVYFCARIDGFYFDFWGQGTLVTVSS
VL: DIQLTQSPSFLSASVGDRVTITCKGSQNVNKYLVWYQQKPGKAPKLLIYSTDNLQSGIPSRFSGSGSGTEYTLTISSLQPEDFATYFCYQYNNGFTFGQGTKVEIK
notes: First humanized version; FR/HVR pieces in order; also called h1.15C8.L1H1
B6: h7E7.L1H1 (antibody, V domains shown)
VH: B5 VH with H32Y, L37V, F60Y, T72A, A97T, D100Y
VL: B5 VL with S50N
notes: First humanized version; FR/HVR pieces in order; also called h1.7E7.L1H1
B7: h7E7.L5aH9a (antibody, V domains shown)
VH: B5 VH with H32Y, L37V, I48M, F60Y, A68V, L70I, T72R, F95Y, D100Y
VL: B5 VL with S50N, I58V, F87Y
notes: Final humanized 7E7; keeps rat VH I47 and VL Y71; FR/HVR pieces
B8: 7.4A3.Q1E.C96 (antibody, V domains shown)
VH: B1 VH
VL: B1 VL with Y96C
notes: built from its name as 7.4A3 with Q1E in VH and C96 kept in VL
B9: 4.1A4.Q1E.C96 (antibody, V domains shown)
VH: EVQLVQSGSELKKPGASVKVSCKASGYTLTNYPMNWVRQAPGRGLEWMGWINTNTGSPAYAQDFTERFVFSLDTSVTTAYLQISSLKAEDTAVYYCARTAITSVYHFDYWGQGTLVTVSS
VL: DIQLTQSPSFLSASVGDRVTITCRASQGISSYLAWYQQKPGKAPRVLIYGATTLQSGVPSRFSGSESGTEFTLTISSLQPEDLATYYCQKLNSHPCSFGQGTKVEIK
notes: built from its name as 4.1A4 with Q1E in VH and C96 kept in VL
B10: 4.1A4.C96Y.Q1E (antibody, V domains shown)
VH: B9 VH
VL: B9 VL with C96Y
notes: FR/HVR pieces in order; also called 4.1A4.Q1E.C96Y

Results on ten molecules are retold here after patent US20220064286A1 (Genentech, published 2022).

Residue numbers refer to the chain shown, from its start. Numbers in names are those of the source.

T3 sequence (A0A7N9I9V4 entry or part of it): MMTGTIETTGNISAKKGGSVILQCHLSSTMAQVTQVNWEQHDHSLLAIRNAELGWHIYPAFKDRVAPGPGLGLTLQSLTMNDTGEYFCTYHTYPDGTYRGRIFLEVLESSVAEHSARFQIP

One assay addresses T1, human TIGIT protein. Description: SPR, captured mAb. An excerpt: (§1) To prevent unwanted pyroglutamate formation for clones 4.1A4, 4.1 D3, and 7.4A3 (also referred to as 1A4, 1 D3, and 4A3, respectively) and to resolve the issue of unpaired cysteine residues for clones 4.1A4 and 7.4A3, the following optimized anti-TIGIT antibody variants were generated: 4.1A4.C96S.Q1E, 4.1A4.C96Y.Q1E, 4.1 D3.Q1E, 7.4A3.C96S.Q1E, and 7.4A3.C96Y.Q1E (also referred to as 1A4.C96S.Q1E, 1A4.C96Y.Q1E, 1 D3.Q1E, 4A3.C96S.Q1E, and 4A3.C96Y.Q1E, respectively). As described below in Table 2, the affinities of these five optimized variants for human and cynomolgus monkey (cyno) TIGIT were then determined by Surface Plasmon Resonance (SRP) (BIACORE™ analysis) and compared to that of their respective parental clones.
(§2) Briefly, a series S CM5 biosensor chip was activated with N-ethyl-N′-(3-dimethylaminopropyl)-carbodiimide hydrochloride (EDC) and N-hydroxysuccinimide (NHS) reagents according to the supplier's (GE Healthcare Biosciences, Piscataway, N.J.) instructions, and a human antibody capture kit was applied to couple goat anti-human Fc IgGs in order to achieve approximately 10,000 response units (RU) on each flow cell, followed by blocking un-reacted groups with 1M ethanolamine.
(§3) (flow rate: 30 μl/min) with no regeneration between injections. The sensorgrams were recorded and evaluated by BIAcore™ T200 Evaluation Software (version 2.0) after subtraction of reference cell signal. Association rates (kₒₙ) and dissociation rates (koff) were calculated using a simple one-to-one Langmuir binding model. The equilibrium dissociation constant (KD) was calculated as the ratio koff/kₒₙ.
Take B1: the Kd (in general, the free concentration of one partner at which half of the binding sites on the other are occupied at equilibrium, for simple one-to-one binding) turned out to be 98000 pM; the koff – broadly, the first-order rate constant of dissociation – is 0.0365 s⁻¹; the kon (as a rule, the second-order rate constant of association) was 372000 M⁻¹ s⁻¹.

The next assay has as its target T3, cynomolgus monkey (cyno) TIGIT protein (cynomolgus monkey, UniProt A0A7N9I9V4 89-209). Description: SPR, captured mAb.
Source text: as §1, §2, §3
(In general: SPR reads the build-up and loss of mass on a sensor chip optically.)
B1 returned a Kd of 35600 pM, a koff of 0.014 s⁻¹ and a kon of 395000 M⁻¹ s⁻¹.

A further assay deals with T1, human TIGIT protein. Description: SPR, captured mAb. This is another data set of the same source. As for the experimental part:
as §2, §3
(§4) The first humanized versions, h6B2, L1H1, h10A5.L1H1, h7E7, L1H1, and h15C8.L1H1, which contain both rat CDRs and framework residues at Vernier positions, and the fully humanized versions, h6B2.L2H5, h10A5.L4H4, h7E7.L5H9, and h15C8.L5H9, which contain only rat CDRs were subject to BIAcore affinity measurement by comparison with original rat antibodies, rat6B2, rat10A5, rat7E7 and rat 15C8. For binding affinity determinations of TIGIT antibodies against human TIGIT, cynomolgus monkey TIGIT and human alanine-scanned TIGIT mutants by single-cycle kinetics, Surface Plasmon Resonance (SRP) measurement with a BIACORE™-T200 instrument was used, as described above.
As to B2, binding was characterised by a dissociation constant (Kd) of 540 pM, the koff amounted to 0.00253 s⁻¹ and the kon is 4.67e+06 M⁻¹ s⁻¹.
As for B3, binding was characterised by a dissociation constant (Kd) of 440 pM, the koff was determined as 0.00227 s⁻¹ and the kon came to 5.21e+06 M⁻¹ s⁻¹.
For B4 the same measures were 520 pM, 0.00238 s⁻¹ and 4.57e+06 M⁻¹ s⁻¹.
On the same counts, the results for B5 are 390 pM, 0.000357 s⁻¹ and 922000 M⁻¹ s⁻¹.
Take B6: the Kd was determined as 230 pM, the koff was found to be 0.000476 s⁻¹ and the kon was 2.06e+06 M⁻¹ s⁻¹.

The next assay deals with T3, cynomolgus monkey (cyno) TIGIT protein. The experiment in a line: SPR, captured mAb. This is another data set of the same source. As for the experimental part: as §2, §3, §4
The molecule B2 had a Kd of 960 pM, an off-rate (koff) of 0.00118 s⁻¹ and a kon of 1.23e+06 M⁻¹ s⁻¹.
On the same counts, the results for B3 are 850 pM, 0.00129 s⁻¹ and 1.52e+06 M⁻¹ s⁻¹.
On the same counts, the results for B4 are 860 pM, 0.00127 s⁻¹ and 1.47e+06 M⁻¹ s⁻¹.
On the same counts, the results for B5 are 940 pM, 0.000464 s⁻¹ and 493000 M⁻¹ s⁻¹.
The molecule B7 showed a Kd of 310 pM, a koff of 0.000182 s⁻¹ and a kon of 591000 M⁻¹ s⁻¹.
For B6 the same measures were 360 pM, 0.000152 s⁻¹ and 418000 M⁻¹ s⁻¹.

The target in another assay is T1, human TIGIT protein. Description: SPR, monovalent affinity.
B8: binding was characterised by a dissociation constant (Kd) of 3450 pM.
On the same count and under the same terms, as for B1, the figure is 98100 pM; as for B9, 3600 pM; as for B2, 540 pM.
On the same count and under the same terms, as for B4, the figure is 520 pM; as for B5, 580 pM; as for B6, 330 pM.

Another assay has as its target T3, cynomolgus monkey (cyno) TIGIT protein. Description: SPR, monovalent affinity.
Consider B8, for which the Kd came out at 2090 pM.
Molecule B1 came in with a Kd of 35500 pM.
On the same count and under the same terms, as for B9, the figure is 2400 pM; as for B10, > 100000 pM.
B2 had a Kd of 960 pM.
As for B4, binding was characterised by a dissociation constant (Kd) of 860 pM.
As to B5, the Kd was 1390 pM.
On the same count and under the same terms, as for B6, the figure is 510 pM.

In the next assay the target is T2, hTIGIT mutant H76A. Description: SPR (BIACORE), N=2.
For B7, binding was put at a Kd of 1000 pM.

For another assay, the target named is T2, hTIGIT mutant H76A. Description: SPR (BIACORE) KD normalized to WT, N=2.
Regarding B7, the “Binding affinity drop vs. WT” value came to 2.5 fold.

The target of another assay is T4, cynomolgus TIGIT on CHO cells (cynomolgus monkey, UniProt A0A7N9I9V4 89-312).
T4 construct: whole, on cells; also called CHO-cyTIGIT; cyTIGIT
T4 sequence (A0A7N9I9V4 entry or part of it): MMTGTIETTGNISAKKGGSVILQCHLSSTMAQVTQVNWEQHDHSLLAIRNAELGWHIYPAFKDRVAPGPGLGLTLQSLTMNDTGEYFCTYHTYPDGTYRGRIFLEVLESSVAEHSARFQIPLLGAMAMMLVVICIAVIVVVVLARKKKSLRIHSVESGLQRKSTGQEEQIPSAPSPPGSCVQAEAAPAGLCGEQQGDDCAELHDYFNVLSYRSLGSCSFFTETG
The experiment in a line: FACS blocking assay: labelled PVR-Fc (blocked ligand) on CHO cells expressing cyno TIGIT. As for the experimental part: These studies were further validated in CHO-TIGIT PVR blocking experiments in which TIGIT-expressing CHO cells were incubated with labeled PVR-Fc fusion protein in the presence of anti-TIGIT antibody or an human IgG1 control (FIG. 4A).
Take B10: the binding result was “no binding (tested: about 20 nM)”.
